# Measurements: patent publication US20240156961A1, “TISSUE-SPECIFIC ANTIGENS FOR CANCER IMMUNOTHERAPY” (priority 2020, published 2024)
# Tests used:
# [1] = molecular target: T1, class I HLA molecules (Homo sapiens, UniProt P01889); test: Targeted mass spectrometry MHC-peptide analysis (SureQuant, heavy isotope-labeled synthetic peptides); conditions: light endogenous vs heavy isotope-labeled synthetic peptide; human prostate specimen; HLA-B*07:02; Skyline software
# T1 construct: Frozen cell pellets endogenously expressing MHC molecules (untagged) or biotin acceptor peptide (BAP)-tagged MHC molecules; biotin acceptor peptide (BAP), only in some samples; endogenous in cells; host or cells: Human cell lines (e.g. MDAPCa2b, CAMA1, HCC1500, A375, Expi293, B721) and human tissue (prostate, tumours); some cell samples express BAP-tagged HLA
# Method: Tissue samples were homogenized in lysis buffer plus benzonase nuclease. All lysates were cleared by centrifugation. […] BAP-tagged samples were biotinylated with 0.56 μM biotin, 1 mM ATP, and 1 μM BirA biotin ligase for 10 minutes, and subsequently incubated with High-Capacity NeutrAvidin Agarose resin for 30 minutes at 4° C. with end-over-end rotation. […] MHC molecules were eluted using 10% acetic acid and peptides were isolated using 10K molecular weight cut-off filtration following filter passivation with 1% bovine serum albumin (BSA). If required, samples were next reduced and alkylated using 5 mM Bond-Breaker TCEP solution at 60° C. for 30 min followed by 15 mM 2-Iodoacetamide for 30 min, protected from light. […] The volume of eluted peptides was reduced using vacuum centrifugation. For targeted analyses, isolated MHC-I peptides were labeled using an isobaric labeling reagent from the tandem mass tag (TMT) 10-plex reagent set (Thermo Fisher). Dried peptides were resuspended in 50 mM HEPES buffer pH 8.5 and combined with 33.3 μg of TMT solubilized in 100% anhydrous acetonitrile. […] Peptides were analyzed using SureQuant targeted data acquisition strategy, where the heavy isotope labeled synthetic peptide serves as a trigger to guide the acquisition of spectrum corresponding to the light (unlabeled) endogenous MHC peptide using mass offset triggering and pseudo-spectral matching. […]
# [2] = molecular target: T2, HLA-A*02:01 (human); test: MS validation of HLA class I-presented peptide; sample A375
# T2 construct: MHC class I molecule expressed by the cells or tissue sample (endogenous or BAP-tagged), immunopurified before peptide elution
# Method: (§1) Frozen cell pellets endogenously expressing MHC molecules (untagged) or biotin acceptor peptide (BAP)-tagged MHC molecules were lysed by pipetting and end-over-end rotation for twenty minutes using lysis buffer [20 mM Tris-Cl pH 8, 100 mM NaCl, 6 mM MgCl2, 1.5% (v/v) Triton X-100, 60 mM octyl B-D-glucopyranoside, 0.2 mM of 2-Iodoacetamide, 1 mM EDTA pH 8, 1 mM PMSF, 1× complete EDTA-free protease inhibitor cocktail (Roche)] plus benzonase nuclease for twenty minutes. Tissue samples were homogenized in lysis buffer plus benzonase nuclease. All lysates were cleared by centrifugation. Samples with untagged MHC molecules were subsequently incubated with GammaBind Plus Sepharose Beads (GE Healthcare) pre-charged with a pan-HLA A/B/C antibody (clone W6/32) overnight at 4 C with end-over-end rotation. BAP-tagged samples were biotinylated with 0.56 μM biotin, 1 mM ATP, and 1 μM BirA biotin ligase for 10 minutes, and subsequently incubated with High-Capacity NeutrAvidin Agarose resin for 30 minutes at 4° C. with end-over-end rotation. Following enrichment, beads were washed 2× with wash buffer A [20 mM Tris-Cl pH 8, 100 mM, NaCl, 60 mM octyl B-D-glucopyranoside, 0.2 mM of 2-Iodoacetamide, 1 mM EDTA pH 8] and wash buffer B [10 mM Tris-Cl pH 8] using a positive pressure manifold. […]
# [3] = molecular target: T2, HLA-A*02:01; test: MS validation of HLA class I-presented peptide; samples CD165, HCC1500, CAMA1
# Method: as §1
# [4] = molecular target: T3, HLA-C*04:01 (human); test: MS validation of HLA class I-presented peptide; sample CAMA1
# T3 construct: MHC class I molecule expressed by the cells or tissue sample (endogenous or BAP-tagged), immunopurified before peptide elution
# Method: as §1
# [5] = molecular target: T4, HLA-A*24:02 (human); test: MS validation of HLA class I-presented peptide; sample human prostate
# T4 construct: MHC class I molecule expressed by the cells or tissue sample (endogenous or BAP-tagged), immunopurified before peptide elution
# Method: (§2) Frozen cell pellets endogenously expressing MHC molecules (untagged) or biotin acceptor peptide (BAP)-tagged MHC molecules were lysed by pipetting and end-over-end rotation for twenty minutes using lysis buffer [20 mM Tris-Cl pH 8, 100 mM NaCl, 6 mM MgCl2, 1.5% (v/v) Triton X-100, 60 mM octyl B-D-glucopyranoside, 0.2 mM of 2-Iodoacetamide, 1 mM EDTA pH 8, 1 mM PMSF, 1× complete EDTA-free protease inhibitor cocktail (Roche)] plus benzonase nuclease for twenty minutes. Tissue samples were homogenized in lysis buffer plus benzonase nuclease. All lysates were cleared by centrifugation. Samples with untagged MHC molecules were subsequently incubated with GammaBind Plus Sepharose Beads (GE Healthcare) pre-charged with a pan-HLA A/B/C antibody (clone W6/32) overnight at 4 C with end-over-end rotation. BAP-tagged samples were biotinylated with 0.56 μM biotin, 1 mM ATP, and 1 μM BirA biotin ligase for 10 minutes, and subsequently incubated with High-Capacity NeutrAvidin Agarose resin for 30 minutes at 4° C. with end-over-end rotation. Following enrichment, beads were washed 2× with wash buffer A [20 mM Tris-Cl pH 8, 100 mM, NaCl, 60 mM octyl B-D-glucopyranoside, 0.2 mM of 2-Iodoacetamide, 1 mM EDTA pH 8] and wash buffer B [10 mM Tris-Cl pH 8] using a positive pressure manifold. MHC molecules were eluted using 10% acetic acid and peptides were isolated using 10K molecular weight cut-off filtration following filter passivation with 1% bovine serum albumin (BSA). If required, samples were next reduced and alkylated using 5 mM Bond-Breaker TCEP solution at 60° C. for 30 min followed by 15 mM 2-Iodoacetamide for 30 min, protected from light. Samples were next acidified using 100% formic acid and desalted using 10 mg Sep-Pak tC18 μElution plates with peptide elutions at 15% acetonitrile and 50% acetonitrile, which were subsequently pooled. The volume of eluted peptides was reduced using vacuum centrifugation.
# [6] = molecular target: T3, HLA-C*04:01; test: as above
# Method: as §2
# [7] = molecular target: T4, HLA-A*24:02; test: MS validation of HLA class I-presented peptide (validation cell empty in Table 1C); sample human prostate
# [8] = molecular target: T2, HLA-A*02:01; test: MS validation of HLA class I-presented peptide; samples lung tumor, GBM, OvCa13, breast tumor, A375, MSV000082648
# Method: as §1
# [9] = molecular target: T5, HLA-C*06:02 (human); test: MS validation of HLA class I-presented peptide; sample human prostate
# T5 construct: MHC class I molecule expressed by the cells or tissue sample (endogenous or BAP-tagged), immunopurified before peptide elution
# Method: as §2
# [10] = molecular target: T6, HLA-C*07:02 (human); test: MS validation of HLA class I-presented peptide (second allele under Allele (MS)); sample human prostate
# T6 construct: MHC class I molecule expressed by the cells or tissue sample (endogenous or BAP-tagged), immunopurified before peptide elution
# Method: as §1
# [11] = molecular target: T7, HLA-A*01:01 (human); test: MS validation of HLA class I-presented peptide; sample human prostate
# T7 construct: MHC class I molecule expressed by the cells or tissue sample (endogenous or BAP-tagged), immunopurified before peptide elution
# Method: as §2
# [12] = molecular target: T2, HLA-A*02:01; test: MS validation of HLA class I-presented peptide; samples CAMA1, HCC1500
# Method: as §1
# [13] = molecular target: T6, HLA-C*07:02; test: MS validation of HLA class I-presented peptide; sample human prostate
# Method: as §2
# [14] = molecular target: T8, HLA-C*07:01 (human); test: MS validation of HLA class I-presented peptide; samples MDAPCa2b, human prostate
# T8 construct: MHC class I molecule expressed by the cells or tissue sample (endogenous or BAP-tagged), immunopurified before peptide elution
# Method: as §1
# [15] = molecular target: T6, HLA-C*07:02; test: MS validation of HLA class I-presented peptide (second allele under Allele (MS)); samples MDAPCa2b, human prostate
# Method: as §1
# [16] = molecular target: T9, HLA-B*07:02 (human); test: MS validation of HLA class I-presented peptide; sample human prostate
# T9 construct: MHC class I molecule expressed by the cells or tissue sample (endogenous or BAP-tagged), immunopurified before peptide elution
# Method: as §2
# [17] = molecular target: T9, HLA-B*07:02; test: MS validation of HLA class I-presented peptide (second allele under Allele (MS)); samples MDAPCa2b, human prostate, breast cancer
# Method: as §1
# [18] = molecular target: T8, HLA-C*07:01; test: MS validation of HLA class I-presented peptide; samples MDAPCa2b, human prostate, breast cancer
# Method: as §1
# [19] = molecular target: T3, HLA-C*04:01; test: MS validation of HLA class I-presented peptide; samples B721, A375
# Method: as §1
# [20] = molecular target: T7, HLA-A*01:01; test: MS validation of HLA class I-presented peptide; samples GBM, A375
# Method: as §1
# [21] = molecular target: T2, HLA-A*02:01; test: MS validation of HLA class I-presented peptide; sample human prostate
# Method: as §2
# [22] = molecular target: T5, HLA-C*06:02; test: MS validation of HLA class I-presented peptide; sample MDAPCa2b
# Method: as §1
# [23] = molecular target: T2, HLA-A*02:01; test: MS validation of HLA class I-presented peptide; multiple cell lines and tumor samples
# Method: as §1
molecule,measurement,setting,value
HPEYNRPLL (listed as Homo sapiens),dot product similarity score of peptide fragment ions,[1],0.992
KVLEHVVRV,binding result,[2],binds
LLSHGAVIEV,binding result,[3],binds
SIPTKALEL,binding result,[4],binds
LFHPEDTGQVF,binding result,[5],binds
TWIAPPLQV,binding result,[6],binds
GYLQGLVSF,binding result,[7],binds
GVYDGREHTV,binding result,[8],binds
NRPLLANDL,binding result,[9],binds
same,binding result,[10],binds
YSEKVTEFML,binding result,[11],binds
SLSKILDTV,binding result,[12],binds
VFQVSHSF,binding result,[13],binds
QRVPVSHSF,binding result,[14],binds
same,binding result,[15],binds
MPALPMVL,binding result,[16],binds
HPEYNRPLL,binding result,[17],binds
same,binding result,[18],binds
SVPNKALEL,binding result,[19],binds
EVDPASNTY,binding result,[20],binds
KVDELAHFL,binding result,[2],binds
LLANGRMPTV,binding result,[21],binds
LRPGDDSTL (4002 is used here),binding result,[13],binds
IRNKSVILL,binding result,[9],binds
same,binding result,[10],binds
AYSEKVTEF,binding result,[22],binds
SLDQKLFQL,binding result,[12],binds
SLLQHLIGL,binding result,[23],binds
